Like-named read-outs stand apart in the source and are kept apart here. Where no end group is shown, it is not given here.
Assays:
Experiment in all cases: cell-based or functional assay
[1] = biological target: human Kv1.3 channel (human) (UniProt P22001)
[2] = biological target: human Kv1.1 channel (human) (UniProt Q09470)
[3] = biological target: human Kv1.3 channel (human) (UniProt P22001); remark: listed apart in the source

Sequence of human Kv1.3 channel (human) (P22001 whole entry): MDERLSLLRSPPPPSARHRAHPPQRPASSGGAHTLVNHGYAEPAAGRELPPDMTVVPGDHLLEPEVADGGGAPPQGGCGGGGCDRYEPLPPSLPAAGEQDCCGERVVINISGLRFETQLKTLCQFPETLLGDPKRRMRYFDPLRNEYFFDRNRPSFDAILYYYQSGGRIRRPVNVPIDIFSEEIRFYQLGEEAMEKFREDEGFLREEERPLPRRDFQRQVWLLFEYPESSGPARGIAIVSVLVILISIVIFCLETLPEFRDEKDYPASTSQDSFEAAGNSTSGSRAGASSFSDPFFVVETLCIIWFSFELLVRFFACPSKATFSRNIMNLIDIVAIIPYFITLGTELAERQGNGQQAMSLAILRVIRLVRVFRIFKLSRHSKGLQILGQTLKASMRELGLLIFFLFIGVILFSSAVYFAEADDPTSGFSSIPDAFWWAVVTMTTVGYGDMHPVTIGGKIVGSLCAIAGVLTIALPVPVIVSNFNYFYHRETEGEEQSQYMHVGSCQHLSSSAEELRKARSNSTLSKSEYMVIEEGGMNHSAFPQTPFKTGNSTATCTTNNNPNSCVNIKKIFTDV
Sequence of human Kv1.1 channel (human) (Q09470 whole entry): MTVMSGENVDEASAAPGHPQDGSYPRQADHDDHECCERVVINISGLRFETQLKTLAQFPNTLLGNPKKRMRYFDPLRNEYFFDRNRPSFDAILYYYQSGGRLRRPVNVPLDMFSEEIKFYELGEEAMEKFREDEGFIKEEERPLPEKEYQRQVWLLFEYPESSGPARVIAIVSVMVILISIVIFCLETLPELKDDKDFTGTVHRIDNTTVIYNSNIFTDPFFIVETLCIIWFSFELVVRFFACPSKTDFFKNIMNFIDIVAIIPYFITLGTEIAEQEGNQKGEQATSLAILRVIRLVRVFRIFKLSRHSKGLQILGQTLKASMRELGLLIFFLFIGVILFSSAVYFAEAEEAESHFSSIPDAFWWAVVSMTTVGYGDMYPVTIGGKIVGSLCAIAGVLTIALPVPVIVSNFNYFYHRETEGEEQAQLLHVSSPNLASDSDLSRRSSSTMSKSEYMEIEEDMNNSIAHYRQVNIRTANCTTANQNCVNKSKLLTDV

## PEG-OSK1 (peptide)
[1]
  peak IC50 (whole-cell patch clamp, HEK293 stably expressing human Kv1.3): 1.28 nM

## Fc-L10-OSK1 (CHO-derived peptibody) (Fc fusion)
[2]
  hKv1.1: IC50 (electrophysiology, HEK293): 41600 pM

## Synthetic OSK1 toxin peptide
[1]
  hKv1.3: IC50 (whole-cell patch clamp, HEK293): 0.039 nM
  selectivity ratio hKv1.1/hKv1.3 (IC50 on hKv1.1 over IC50 on hKv1.3): 4
[2]
  hKv1.1: IC50 (electrophysiology, HEK293): 160 pM

## Fc-L25-ShK[2-35] peptibody (Fc fusion)
[1]
  IC50, whole cell patch clamp electrophysiology on HEK293/Kv1.3 cells: 150 pM

## RSCIDTIPKSRCTAFQCKHSMKYRLSFCRKTCGTC (not fully specified (N-terminus); ends and bridges not checked) [20K PEG-ShK[1-35]]
[3]
  peak IC50 (whole-cell patch clamp, HEK293 stably expressing human Kv1.3): 0.169 nM
